According to PMC11662680:
Positions count from the first letter of the chain named. Where two headings read alike, the source gives them in different places.

Key:
[1] = target: CapW from Rhizobium leguminosarum (Rhizobium leguminosarum); experiment: crystal structure
Ec CapW WT = target: T1, Ec CapW WT (Escherichia coli upec-117, UniProt P0DX76 1-299); experiment: fluorescence polarization
T1 sequence: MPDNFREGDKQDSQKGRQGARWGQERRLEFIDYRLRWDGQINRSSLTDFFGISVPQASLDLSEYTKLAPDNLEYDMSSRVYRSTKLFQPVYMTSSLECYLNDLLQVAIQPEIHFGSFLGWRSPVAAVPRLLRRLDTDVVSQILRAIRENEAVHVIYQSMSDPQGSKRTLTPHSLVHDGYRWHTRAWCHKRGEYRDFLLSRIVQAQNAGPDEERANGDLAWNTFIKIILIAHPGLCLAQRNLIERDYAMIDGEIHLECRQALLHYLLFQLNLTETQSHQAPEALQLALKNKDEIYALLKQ

Ec CapW S158E [2] = target: T2, Ec CapW S158E (Escherichia coli upec-117, UniProt P0DX76 1-299, S158E); experiment: fluorescence polarization
T2 sequence: T1 sequence with S158E

Ec CapW R200A [3] = target: T3, Ec CapW R200A (Escherichia coli upec-117, UniProt P0DX76 1-299, R200A); experiment: fluorescence polarization
T3 sequence: T1 sequence with R200A

Rl CapW WT = target: T4, Rl CapW WT (Rhizobium leguminosarum, UniProt PDB:9C5G_1 1-299); experiment: X-ray crystallography
T4 sequence: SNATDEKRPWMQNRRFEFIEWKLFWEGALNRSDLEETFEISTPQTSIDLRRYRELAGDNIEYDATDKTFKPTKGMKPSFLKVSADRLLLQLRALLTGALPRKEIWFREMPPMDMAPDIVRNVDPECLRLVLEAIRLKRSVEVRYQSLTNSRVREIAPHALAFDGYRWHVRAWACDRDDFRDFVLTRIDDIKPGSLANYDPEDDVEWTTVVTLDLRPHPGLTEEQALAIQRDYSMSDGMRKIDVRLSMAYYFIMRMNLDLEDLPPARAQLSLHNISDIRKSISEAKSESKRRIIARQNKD

Ec CapW S158E [4] = target: T2, Ec CapW S158E; experiment: fluorescence polarization; remark: listed apart in the source
Ec CapW R200A [5] = target: T3, Ec CapW R200A; experiment: fluorescence polarization; remark: listed apart in the source

**Q.** “CapW from Rhizobium leguminosarum (natural protein)” was tested. Which stoichiometry N [1] did it give?
**A.** 2

**Q.** Does AAAAAAA (ssDNA) [7mer poly-A] bind (Ec CapW WT)?
**A.** no binding

B1: CapW 30 bp palindromic binding site (dsDNA)
DNA 1: TAAAAACTGATCGTATAATAATGCTACGCT
DNA 2: AGCGTAGCATTATTATACGATCAGTTTTTA
**Q.** Which results are given for B1?
**A.** binding result (Ec CapW S158E [2]): binds; binding result (Ec CapW R200A [3]): binds

**Q.** Does TTTTTTT (ssDNA) [7mer poly-T, unlabeled] bind (Rl CapW WT)?
**A.** binds

**Q.** Does TTTTTTT (ssDNA) [7mer poly-T, FAM] bind (Ec CapW S158E [4])?
**A.** no binding

**Q.** Does TTTTTTT (ssDNA) [7mer poly-T, FAM] bind (Ec CapW R200A [5])?
**A.** no binding

**Q.** Does UUUUUUU (ssRNA) [7mer poly-U RNA] bind (Ec CapW WT)?
**A.** no binding
